{"source": "paper PMC2783421", "about": "(Developmental biology, 2009)", "data": [{"target": "T1, His6-tagged ERK2 (Dictyostelium discoideum, UniProt Q54QB1 1-369)", "T1 sequence (looked up)": "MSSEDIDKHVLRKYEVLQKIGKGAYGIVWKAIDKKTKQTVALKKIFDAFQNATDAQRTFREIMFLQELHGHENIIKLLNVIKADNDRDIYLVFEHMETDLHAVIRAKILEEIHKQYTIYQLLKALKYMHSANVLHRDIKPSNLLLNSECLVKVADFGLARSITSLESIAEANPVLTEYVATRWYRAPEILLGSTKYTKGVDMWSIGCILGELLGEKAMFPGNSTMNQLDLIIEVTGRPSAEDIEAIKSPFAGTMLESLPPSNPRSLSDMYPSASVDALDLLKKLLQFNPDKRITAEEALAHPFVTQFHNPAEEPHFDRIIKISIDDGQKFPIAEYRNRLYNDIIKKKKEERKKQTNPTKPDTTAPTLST", "assay": "pull-down", "units": {"pull-down yield (percent of the cell extract)": "%"}, "values": [{"binder": "Myc-tagged Gα4 subunit (wild type) (natural protein, Dictyostelium discoideum, UniProt P34042 1-345, looked up) MRFKCFGSEETEQSSKIDKSIETDRRKLRKDVKLLLLGPGESGKSTIFKQMKIIQEDGGYSVEELLEYRAFVYSNCISQMEALLTASAKLNIELEVENKQRAANVLRRTIGNEPWLLLAADIKHLWEDKGIKETYAQKDKHFQLNDSAAYFFDNIDRYMREDFVPNEQDVLRCRVRTTGIQESEFTFDKIRLKIVDVGGQRSQRRKWIHCFDCVTAVIFVAAMSDYDQVLREDESVNRTRESLALFKEIVNCDYFKETPIVLFLNKKDLFKEKLKRVPLQSCFSDYTGPNKYKDAAMFIQSQYLAQGPSPRTIYTHATCAVDTENIKFVFRAVRQTILSQALEHF", "pull-down yield (percent of the cell extract)": "~22"}, {"binder": "Myc-tagged Gα4^R107E,R108E subunit (altered D-motif) (natural protein, Dictyostelium discoideum, UniProt P34042 1-345, looked up) MRFKCFGSEETEQSSKIDKSIETDRRKLRKDVKLLLLGPGESGKSTIFKQMKIIQEDGGYSVEELLEYRAFVYSNCISQMEALLTASAKLNIELEVENKQRAANVLEETIGNEPWLLLAADIKHLWEDKGIKETYAQKDKHFQLNDSAAYFFDNIDRYMREDFVPNEQDVLRCRVRTTGIQESEFTFDKIRLKIVDVGGQRSQRRKWIHCFDCVTAVIFVAAMSDYDQVLREDESVNRTRESLALFKEIVNCDYFKETPIVLFLNKKDLFKEKLKRVPLQSCFSDYTGPNKYKDAAMFIQSQYLAQGPSPRTIYTHATCAVDTENIKFVFRAVRQTILSQALEHF", "pull-down yield (percent of the cell extract)": "~9"}, {"binder": "Myc-tagged constitutively active Gα4^Q200L subunit (natural protein, Dictyostelium discoideum, UniProt P34042 1-345, looked up) MRFKCFGSEETEQSSKIDKSIETDRRKLRKDVKLLLLGPGESGKSTIFKQMKIIQEDGGYSVEELLEYRAFVYSNCISQMEALLTASAKLNIELEVENKQRAANVLRRTIGNEPWLLLAADIKHLWEDKGIKETYAQKDKHFQLNDSAAYFFDNIDRYMREDFVPNEQDVLRCRVRTTGIQESEFTFDKIRLKIVDVGGLRSQRRKWIHCFDCVTAVIFVAAMSDYDQVLREDESVNRTRESLALFKEIVNCDYFKETPIVLFLNKKDLFKEKLKRVPLQSCFSDYTGPNKYKDAAMFIQSQYLAQGPSPRTIYTHATCAVDTENIKFVFRAVRQTILSQALEHF", "pull-down yield (percent of the cell extract)": "~9"}, {"binder": "Myc-tagged Gα4^(R107E, R108E, Q200L) subunit (natural protein, Dictyostelium discoideum, UniProt P34042 1-345, looked up) MRFKCFGSEETEQSSKIDKSIETDRRKLRKDVKLLLLGPGESGKSTIFKQMKIIQEDGGYSVEELLEYRAFVYSNCISQMEALLTASAKLNIELEVENKQRAANVLEETIGNEPWLLLAADIKHLWEDKGIKETYAQKDKHFQLNDSAAYFFDNIDRYMREDFVPNEQDVLRCRVRTTGIQESEFTFDKIRLKIVDVGGLRSQRRKWIHCFDCVTAVIFVAAMSDYDQVLREDESVNRTRESLALFKEIVNCDYFKETPIVLFLNKKDLFKEKLKRVPLQSCFSDYTGPNKYKDAAMFIQSQYLAQGPSPRTIYTHATCAVDTENIKFVFRAVRQTILSQALEHF", "pull-down yield (percent of the cell extract)": "~4"}]}]}
